The record followed here is US12630600B2 (MEDIMMUNE LIMITED, priority 2022, dated 2026).

Starred links: 1 amine or outer side, 2 acyl side, 3 side chain; linkers in the order of their positions; H or OH if unused. Non-standard residues stand in square brackets, D forms with d. Groups on a side chain read outwards from the residue. No end group written: not given here. *: point of attachment. C20 diacid = O=C(O)CCCCCCCCCCCCCCCCCCC(=O)*; C18 diacid = O=C(O)CCCCCCCCCCCCCCCCC(=O)*; γGlu = O=C(O)[C@H](CCC(=O)[*:2])N[*:1]; αMeF = C[C@](N)(Cc1ccccc1)C(=O)O; AEEA = NCCOCCOCC(=O)O; Aib = CC(C)(N)C(=O)O

One assay addresses human GLP-1 receptor (human, UniProt P43220). In words: cell-based or functional assay.
The next assay addresses human glucagon receptor (human, UniProt P47871). Nature of the assay: cell-based or functional assay.

B1: Peptide 234 (peptide)
peptide: H[Aib]HGS[αMeF]TSDVSK[αMeF]LDSRAAK([AEEA-AEEA-γGlu-γGlu-C20 diacid])D[αMeF]VE[Aib]IANT-NH2
modifications: N-terminus assumed
SMILES: CC[C@H](C)[C@H](NC(=O)C(C)(C)NC(=O)[C@H](CCC(=O)O)NC(=O)[C@@H](NC(=O)[C@](C)(Cc1ccccc1)NC(=O)[C@H](CC(=O)O)NC(=O)[C@H](CCCCNC(=O)COCCOCCNC(=O)COCCOCCNC(=O)CC[C@H](NC(=O)CC[C@H](NC(=O)CCCCCCCCCCCCCCCCCCC(=O)O)C(=O)O)C(=O)O)NC(=O)[C@H](C)NC(=O)[C@H](C)NC(=O)[C@H](CCCNC(=N)N)NC(=O)[C@H](CO)NC(=O)[C@H](CC(=O)O)NC(=O)[C@H](CC(C)C)NC(=O)[C@](C)(Cc1ccccc1)NC(=O)[C@H](CCCCN)NC(=O)[C@H](CO)NC(=O)[C@@H](NC(=O)[C@H](CC(=O)O)NC(=O)[C@H](CO)NC(=O)[C@@H](NC(=O)[C@](C)(Cc1ccccc1)NC(=O)[C@H](CO)NC(=O)CNC(=O)[C@H](Cc1c[nH]cn1)NC(=O)C(C)(C)NC(=O)[C@@H](N)Cc1c[nH]cn1)[C@@H](C)O)C(C)C)C(C)C)C(=O)N[C@@H](C)C(=O)N[C@@H](CC(N)=O)C(=O)N[C@H](C(N)=O)[C@@H](C)O
With B1, the “hGLP-1R EC50 (pM)” value with human GLP-1 receptor was 68 pM. In addition, the “hGluc-R EC50 (pM)” value with human glucagon receptor was 1290 pM.
In the same order, the values of H[Aib]HGS[αMeF]TSDVSK[αMeF]LDSRAAKD[αMeF]VQ[Aib]IANT-NH2 (not fully specified (residue 20)) [Peptide 232] are 110 pM and 1020 pM.

B2: Peptide 215 (peptide)
peptide: H[Aib]HGS[αMeF]TSDVSK[αMeF]LDSRAAK([AEEA-AEEA-γGlu-C20 diacid])D[αMeF]VQWIANT-NH2
modifications: N-terminus assumed
SMILES: CC[C@H](C)[C@H](NC(=O)[C@H](Cc1c[nH]c2ccccc12)NC(=O)[C@H](CCC(N)=O)NC(=O)[C@@H](NC(=O)[C@](C)(Cc1ccccc1)NC(=O)[C@H](CC(=O)O)NC(=O)[C@H](CCCCNC(=O)COCCOCCNC(=O)COCCOCCNC(=O)CC[C@H](NC(=O)CCCCCCCCCCCCCCCCCCC(=O)O)C(=O)O)NC(=O)[C@H](C)NC(=O)[C@H](C)NC(=O)[C@H](CCCNC(=N)N)NC(=O)[C@H](CO)NC(=O)[C@H](CC(=O)O)NC(=O)[C@H](CC(C)C)NC(=O)[C@](C)(Cc1ccccc1)NC(=O)[C@H](CCCCN)NC(=O)[C@H](CO)NC(=O)[C@@H](NC(=O)[C@H](CC(=O)O)NC(=O)[C@H](CO)NC(=O)[C@@H](NC(=O)[C@](C)(Cc1ccccc1)NC(=O)[C@H](CO)NC(=O)CNC(=O)[C@H](Cc1c[nH]cn1)NC(=O)C(C)(C)NC(=O)[C@@H](N)Cc1c[nH]cn1)[C@@H](C)O)C(C)C)C(C)C)C(=O)N[C@@H](C)C(=O)N[C@@H](CC(N)=O)C(=O)N[C@H](C(N)=O)[C@@H](C)O
Consider B2, for which the “hGLP-1R EC50 (pM)” value with human GLP-1 receptor is 7620 pM. Moreover, in the assay with human glucagon receptor, the “hGluc-R EC50 (pM)” value was determined as 2610 pM.
For the molecule H[Aib]HGS[αMeF]TSDVSK[αMeF]LDSRAAKD[αMeF]IA[Aib]IANT-NH2 (not fully specified (residue 20)) [Peptide 228], the “hGLP-1R EC50 (pM)” value with human GLP-1 receptor is 200 pM. Moreover, the “hGluc-R EC50 (pM)” value with human glucagon receptor stood at 177 pM.
On to H[Aib]HGS[αMeF]TSDVSK[αMeF]LDSRAAKDFVQ[Aib]IANT-NH2 (not fully specified (residue 20)) [Peptide 222], for which the “hGLP-1R EC50 (pM)” value with human GLP-1 receptor was determined as 151 pM. In addition, the “hGluc-R EC50 (pM)” value with human glucagon receptor turned out to be 244 pM.
With H[Aib]HGS[αMeF]TSDVSK[αMeF]LDSRAAK([AEEA-AEEA-γGlu-C18 diacid])D[αMeF]VE[Aib]IANT-NH2 [Peptide 227], the “hGLP-1R EC50 (pM)” value with human GLP-1 receptor stood at 70.5 pM. Besides, the “hGluc-R EC50 (pM)” value in the assay with human glucagon receptor was found to be 27.2 pM.

B3: Peptide 221 (peptide)
peptide: H[Aib]HGS[αMeF]TSDVSK[αMeF]LDSR[Aib]AK([AEEA-AEEA-γGlu-γGlu-C20 diacid])DFVQ[Aib]IANT-NH2
modifications: N-terminus assumed
SMILES: CC[C@H](C)[C@H](NC(=O)C(C)(C)NC(=O)[C@H](CCC(N)=O)NC(=O)[C@@H](NC(=O)[C@H](Cc1ccccc1)NC(=O)[C@H](CC(=O)O)NC(=O)[C@H](CCCCNC(=O)COCCOCCNC(=O)COCCOCCNC(=O)CC[C@H](NC(=O)CC[C@H](NC(=O)CCCCCCCCCCCCCCCCCCC(=O)O)C(=O)O)C(=O)O)NC(=O)[C@H](C)NC(=O)C(C)(C)NC(=O)[C@H](CCCNC(=N)N)NC(=O)[C@H](CO)NC(=O)[C@H](CC(=O)O)NC(=O)[C@H](CC(C)C)NC(=O)[C@](C)(Cc1ccccc1)NC(=O)[C@H](CCCCN)NC(=O)[C@H](CO)NC(=O)[C@@H](NC(=O)[C@H](CC(=O)O)NC(=O)[C@H](CO)NC(=O)[C@@H](NC(=O)[C@](C)(Cc1ccccc1)NC(=O)[C@H](CO)NC(=O)CNC(=O)[C@H](Cc1c[nH]cn1)NC(=O)C(C)(C)NC(=O)[C@@H](N)Cc1c[nH]cn1)[C@@H](C)O)C(C)C)C(C)C)C(=O)N[C@@H](C)C(=O)N[C@@H](CC(N)=O)C(=O)N[C@H](C(N)=O)[C@@H](C)O
With B3, the “hGLP-1R EC50 (pM)” value with human GLP-1 receptor is 122 pM. Also, the “hGluc-R EC50 (pM)” value with human glucagon receptor amounted to 123 pM.

B4: Peptide 225 (peptide)
peptide: H[Aib]HGS[αMeF]TSDVSK[αMeF]LDSRAAK([AEEA-AEEA-γGlu-C18 diacid])D[αMeF]VQ[Aib]IANT-NH2
modifications: N-terminus assumed
SMILES: CC[C@H](C)[C@H](NC(=O)C(C)(C)NC(=O)[C@H](CCC(N)=O)NC(=O)[C@@H](NC(=O)[C@](C)(Cc1ccccc1)NC(=O)[C@H](CC(=O)O)NC(=O)[C@H](CCCCNC(=O)COCCOCCNC(=O)COCCOCCNC(=O)CC[C@H](NC(=O)CCCCCCCCCCCCCCCCC(=O)O)C(=O)O)NC(=O)[C@H](C)NC(=O)[C@H](C)NC(=O)[C@H](CCCNC(=N)N)NC(=O)[C@H](CO)NC(=O)[C@H](CC(=O)O)NC(=O)[C@H](CC(C)C)NC(=O)[C@](C)(Cc1ccccc1)NC(=O)[C@H](CCCCN)NC(=O)[C@H](CO)NC(=O)[C@@H](NC(=O)[C@H](CC(=O)O)NC(=O)[C@H](CO)NC(=O)[C@@H](NC(=O)[C@](C)(Cc1ccccc1)NC(=O)[C@H](CO)NC(=O)CNC(=O)[C@H](Cc1c[nH]cn1)NC(=O)C(C)(C)NC(=O)[C@@H](N)Cc1c[nH]cn1)[C@@H](C)O)C(C)C)C(C)C)C(=O)N[C@@H](C)C(=O)N[C@@H](CC(N)=O)C(=O)N[C@H](C(N)=O)[C@@H](C)O
For B4, in the assay with human GLP-1 receptor, the “hGLP-1R EC50 (pM)” value was 34.9 pM. Moreover, the “hGluc-R EC50 (pM)” value in the assay with human glucagon receptor stood at 145 pM.
In the case of H[Aib]HGS[αMeF]TSDVSK[αMeF]LDSRAAKD[αMeF]VQ[Aib]IANT-NH2 (not fully specified (residue 20)) [Peptide 230], the “hGLP-1R EC50 (pM)” value with human GLP-1 receptor worked out at 170 pM. Further, the “hGluc-R EC50 (pM)” value in the assay with human glucagon receptor came out at 37.1 pM.

B5: Peptide 210 (peptide)
peptide: H[Aib]HGS[αMeF]TSDVSK[αMeF]LDSQAAK([AEEA-AEEA-γGlu-γGlu-C18 diacid])DFVEWIANT-NH2
modifications: N-terminus assumed
SMILES: CC[C@H](C)[C@H](NC(=O)[C@H](Cc1c[nH]c2ccccc12)NC(=O)[C@H](CCC(=O)O)NC(=O)[C@@H](NC(=O)[C@H](Cc1ccccc1)NC(=O)[C@H](CC(=O)O)NC(=O)[C@H](CCCCNC(=O)COCCOCCNC(=O)COCCOCCNC(=O)CC[C@H](NC(=O)CC[C@H](NC(=O)CCCCCCCCCCCCCCCCC(=O)O)C(=O)O)C(=O)O)NC(=O)[C@H](C)NC(=O)[C@H](C)NC(=O)[C@H](CCC(N)=O)NC(=O)[C@H](CO)NC(=O)[C@H](CC(=O)O)NC(=O)[C@H](CC(C)C)NC(=O)[C@](C)(Cc1ccccc1)NC(=O)[C@H](CCCCN)NC(=O)[C@H](CO)NC(=O)[C@@H](NC(=O)[C@H](CC(=O)O)NC(=O)[C@H](CO)NC(=O)[C@@H](NC(=O)[C@](C)(Cc1ccccc1)NC(=O)[C@H](CO)NC(=O)CNC(=O)[C@H](Cc1c[nH]cn1)NC(=O)C(C)(C)NC(=O)[C@@H](N)Cc1c[nH]cn1)[C@@H](C)O)C(C)C)C(C)C)C(=O)N[C@@H](C)C(=O)N[C@@H](CC(N)=O)C(=O)N[C@H](C(N)=O)[C@@H](C)O
For the molecule B5, in the assay with human GLP-1 receptor, the “hGLP-1R EC50 (pM)” value was 156 pM. In addition, in the assay with human glucagon receptor, the “hGluc-R EC50 (pM)” value was 93.7 pM.

B6: Peptide 213 (peptide)
peptide: H[Aib]HGS[αMeF]TSDVSK[αMeF]LDSRAAK([AEEA-AEEA-γGlu-γGlu-C20 diacid])DFVEWIANT-NH2
modifications: N-terminus assumed
SMILES: CC[C@H](C)[C@H](NC(=O)[C@H](Cc1c[nH]c2ccccc12)NC(=O)[C@H](CCC(=O)O)NC(=O)[C@@H](NC(=O)[C@H](Cc1ccccc1)NC(=O)[C@H](CC(=O)O)NC(=O)[C@H](CCCCNC(=O)COCCOCCNC(=O)COCCOCCNC(=O)CC[C@H](NC(=O)CC[C@H](NC(=O)CCCCCCCCCCCCCCCCCCC(=O)O)C(=O)O)C(=O)O)NC(=O)[C@H](C)NC(=O)[C@H](C)NC(=O)[C@H](CCCNC(=N)N)NC(=O)[C@H](CO)NC(=O)[C@H](CC(=O)O)NC(=O)[C@H](CC(C)C)NC(=O)[C@](C)(Cc1ccccc1)NC(=O)[C@H](CCCCN)NC(=O)[C@H](CO)NC(=O)[C@@H](NC(=O)[C@H](CC(=O)O)NC(=O)[C@H](CO)NC(=O)[C@@H](NC(=O)[C@](C)(Cc1ccccc1)NC(=O)[C@H](CO)NC(=O)CNC(=O)[C@H](Cc1c[nH]cn1)NC(=O)C(C)(C)NC(=O)[C@@H](N)Cc1c[nH]cn1)[C@@H](C)O)C(C)C)C(C)C)C(=O)N[C@@H](C)C(=O)N[C@@H](CC(N)=O)C(=O)N[C@H](C(N)=O)[C@@H](C)O
With B6, the “hGLP-1R EC50 (pM)” value with human GLP-1 receptor came to 534 pM. Further, in the assay with human glucagon receptor, the “hGluc-R EC50 (pM)” value was 141 pM.
